This is an account of results in patent publication US12168677B2, “Proteins for the treatment of epithelial barrier function disorders” (Genevive, Inc., priority 2017, dated 2024).

Assay [1] deals with HCT8 enterocytes and HT29-MTX goblet cells. Kind of assay: Co-culture trans-epithelial electrical resistance (TEER) assay with heat killed E. coli challenge. The class given is cell-based, human. Conditions: TEER after 24 hours. How it is done:
Assays were performed as described below in trans-well plates where co-cultures of multiple cell types were performed utilizing a permeable membrane to separate cells. In the apical (top) chamber, human colonic epithelial cells, consisting of a mixture of enterocytes and goblet cells, were cultured until cells obtained tight junction formation and barrier function capacity as assessed by measurement of trans-epithelial electrical resistance (TEER). In the basolateral chamber, monocytes were cultured separately. Epithelial cells were primed with inflammatory cytokines. The assays measured the effect of a therapeutic protein, i.e., SG-15, on epithelial barrier function, wound healing, and production of cytokines. Cell culture. The HCT8 human enterocyte cell line (ATCC Cat. No. CCL-244) was maintained in RPMI-1640 medium supplemented with 10% fetal bovine serum, 100 IU/ml penicillin, 100 μg/ml streptomycin, 10 μg/ml gentamicin and 0.25 μg/ml amphotericin (cRPMI). HT29-MTX human goblet cells (Sigma-Aldrich (St. Louis, MO; Cat. No. 12040401) were maintained in DMEM medium with 10% fetal bovine serum, 100 IU/ml penicillin, 100 μg/ml streptomycin, 10 μg/ml gentamicin and 0.25 μg/ml amphotericin (cDMEM). Epithelial cells were passaged by trypsinization and were used between 5 and 15 passages following thawing from liquid nitrogen stocks. U937 monocytes (ATCC Cat. No. 700928) were maintained in cRPMI medium as a suspension culture, and split by dilution as needed to maintain cells between 5×10^5 and 2×10^6 cells/ml. U937 cells were used up to passage 18 following thawing from liquid nitrogen stocks. Epithelial cell culture. A mixture of HCT8 enterocytes and HT29-MTX goblet cells were plated at a 9:1 ratio, respectively, in the apical chamber of the transwell plate as described previously (Berget et al., 2017, Int J Mol Sci, 18:1573; Beduneau et al., 2014, Eur J Pharm Biopharm, 87:290-298). A total of 10^5 cells were plated in each well (9×10^4 HCT8 cells and 1×10^4 HT29-MTX cells per well). Epithelial cells were trypsinized from culture flasks and viable cells determined by trypan blue counting. The correct volumes of each cell type were combined in a single tube and centrifuged. The cell pellet was resuspended in cRPMI and added to the apical chamber of the transwell plate. […] Monocyte culture. On day 6 of epithelial cell culture 2×10^5 cells/well U937 monocytes were plated into a 96 well receiver plate. […] Co-culture assay. […] After 24 hours fresh cRPMI was added to the epithelial cell culture plate. Trans-epithelial electrical resistance (TEER) readings were measured after the IFN-γ treatment and were used as the pre-treatment TEER values. SG-15 was then added to the apical chamber of the transwell plate at a final concentration of 1 μg/ml (40 nM). The myosin light chain kinase (MLCK) inhibitor peptide 18 (BioTechne, Minneapolis, MN) was used at 50 nM as a positive control to prevent inflammation induced barrier disruption (Zolotarevskky et al., 202, Gastroenterology, 123:163-172). The bacterially derived molecule staurosporine was used at 100 nM as a negative control to induce apoptosis and exacerbate barrier disruption (Antonsson and Persson, 2009, Anticancer Res, 29:2893-2898). […] Following pre-incubation with test compounds the transwell insert containing the enterocytes was transferred on top of the receiver plate containing U937 monocytes. Heat killed E. coli (HK E. coli) (bacteria heated to 80° C. for 40 minutes) was then added to both the apical and basolateral chambers and a multiplicity of infection (MOI) of 10. […] The TEER assays were performed with recombinantly expressed mature (lacking a signal peptide) SG-15 protein such as that described in Example 1A above. Data analysis. Raw electrical resistance values in ohms (Ω) were converted to ohms per square centimeter (Ωcm^2) based on the surface area of the transwell insert (0.143 cm^2). […]

Assay [2] concerns DSS treated mice. Kind of assay: DSS model: colon length. The class given is in vivo, C57BL/6 mice. As to conditions: 50 nmoles/kg i.p. b.i.d.; 2.5% DSS 6 days. How it is done: Eight-week old C57BL/6 mice were housed 5 animals were cage and given food and water ad libitum for 7 days. Following the 7-day acclimation period, treatments were initiated concurrently with addition of 2.5% DSS to the drinking water. […] The mice were treated with 2.5% dextran sodium sulfate (DSS) in their drinking water for 6 days. Treatments were continued with SG-15 or […]-GLP2 twice a day (b.i.d.) in the morning and evening (every 8 and 16 hr) with i.p. injections at 50 nmoles/kg. Fresh 2.5% DSS drinking water was prepared every 2 days. Colon length was measured in mice included in the DSS model described in Example 1E. […] The graph in FIG. 8 represents data pooled from the 2 individual experiments (n=20).

The test system of assay [3] is DSS treated mice. The assay is described as follows: DSS model: colon weight to length ratio. The class given is in vivo, C57BL/6 mice. Conditions: 2.5% DSS 6 days. How it is done:
Eight-week old C57BL/6 mice were housed 5 animals were cage and given food and water ad libitum for 7 days. Following the 7-day acclimation period, treatments were initiated concurrently with addition of 2.5% DSS to the drinking water. […] The mice were treated with 2.5% dextran sodium sulfate (DSS) in their drinking water for 6 days. Treatments were continued with SG-15 or […]-GLP2 twice a day (b.i.d.) in the morning and evening (every 8 and 16 hr) with i.p. injections at 50 nmoles/kg. Fresh 2.5% DSS drinking water was prepared every 2 days. Colon length and weight were measured in mice included in the DSS model study described in Example 1E. […] Accordingly, the ratio of tissue weight to length can be used as a readout of DSS induced tissue damage. SG-15 administration to DSS treated mice (Example 1E) reduced the colon weight to length ratio elicited by DSS (DSS=3.9 mg/mm, DSS+SG-15=3.5 mg/mm; p=0.13). […] However, no difference was observed between treated with SG-15 as compared to treatment with […]GLP2. The graph in FIG. 9 represents data pooled from the 2 individual experiments (n=20).

The mark [4] stands for this setting: protein 1 μg/ml (40 nM) added 30 minutes before HK E. coli.
Where [5] appears, read: protein 1 μg/ml (40 nM) pre-incubated 6 hours before HK E. coli.
Setting [6] is: DSS+SG protein, 50 nmoles/kg i.p. b.i.d., unit not given.

B1: SG-15: 400 amino acid protein (SEQ ID NO:1) encoded by the genome of Eubacterium eligens (protein, listed as Eubacterium eligens)
chain: EYTEIRTASELVEAAKSASGNYKLMTDIDMTGVEWTPWDFSGTFDGNGHSILNLSVKTVSKKTMKTYDGNRKEYKTYGAGFFGVLTGAKVTGLDIYGARIEITTTEPCFAAPIAGLADDSDISDCIIKDTYVSLTDSAKMWGTGGIAGFGSGNLDNITTDVTLVCVDTDAAVRDEQFMGGAYAAGFLNIRNCSITIDGYDSDHGYVHDGGLVGMYMVYPLELSKTYQGEVLNNKVKGMITFFEDNTDRRAYCQANMGEVMNWTYAYSGFTSDFKRNETYDYSVTLLPEMCSNPSYTDVVTEATASDFGYTTHTCSTCGYTYSDTYTIHEHKVDSYSVVKEAASTDKKDGIEAGTCSLCNQTVYREYAANVVTDDNTQATDNKASGTAVKKGMKESTAVFA
Regarding B1, the “TEER of epithelial cell barrier (percent of untreated samples)” value (from here on “TEER … (percent of untreated samples)”) is 71.4% in assay [1] (setting [4]) and 68.5% in assay [1] (setting [5]). The “Colon length / colon shortening elicited by DSS treatment” value in the assay with DSS treated mice [2] is recorded as “reduced colon shortening”. Moreover, the “Colon weight to length ratio, SG protein compared with Gly2-GLP2” value with DSS treated mice [3] (50 nmoles/kg i.p. b.i.d.) is listed as “no difference”. Besides, the “Colon weight to length ratio” value in the assay with DSS treated mice [3] (DSS+SG-15, 50 nmoles/kg i.p. b.i.d.) turned out to be 3.5 mg/mm.

B2: SG-18: 267 amino acid protein (SEQ ID NO:19) encoded by the genome of Clostridium bartlettii sp. nov. (protein, listed as Clostridium bartlettii)
chain: EVDSSKEQATSKDEKQVVVATSVAITEILDRLGVEVSGVPQTSYELPESAKGATEIGSPMNPDMEIIKSLNPTDVICVDTLGSDFEKQFEENNINADFYNLSNVDGLKETIAALGEKFNKQDKANEILDEIKEVENKVNSNKKSDDKILVLFGAPGSVMVATDKSYIGNLVELAGGNNIFSNATSSFTQINLEEIIKLNPDKILVMTHAVPEAAKKSVEEELSKDLWKNVNAVKNNDITYLENGYFGMSANLQIVEAVEKLGDILYE
For B2, the “TEER … (percent of untreated samples)” value in assay [1] (setting [4]) is 71.0%; in assay [1] (setting [5]), “about 85.0%”. In the assay on DSS treated mice [2], the “Colon length / colon shortening elicited by DSS treatment” value is listed as “did not reduce colon shortening”. In addition, the “Colon weight to length ratio” value in the assay on DSS treated mice [3] (setting [6]) amounted to 3.3.

B3: SG-17: 327 amino acid protein (SEQ ID NO:13) encoded by the genome of Eubacterium eligens (protein, listed as Eubacterium eligens)
chain: CNSKIDVKYDYNVEDYVQLGQYENISVQVDKTSIENELIESKIKQDVEDNTTYTEVDRGAIASDQILVTYTATSSGASLSGLTNTDGKTMILGTDTLGLELDELDQALYGMTPGQTKILIVDIPEDYSSDLYKGTRVVFELTMQTVAQANVPMITNAYVKEAFGYDTVEEYRQSIKESLETDINSKVENKIQEDVLSSLQDTFKISSYPDSLMEETRSRLETSIGFYADFSNLSKDEYCQKQYGLSFDDFVKKSVVQQLIMEAIVKDRNMTMREYDYKGSLDDFAADNGYSNADTFVEKFGKDKIVKAMLVQKAQDYVIEHANISYK
For the molecule B3, the figures for the “TEER … (percent of untreated samples)” value in assay [1] (setting [4]) and in assay [1] (setting [5]) were 72.0% and “about 74.2%”, respectively. The “Colon length / colon shortening elicited by DSS treatment” value with DSS treated mice [2] is reported as “did not reduce colon shortening”. Besides, in the assay with DSS treated mice [3] (setting [6]), the “Colon weight to length ratio” value was found to be 3.14.

B4: SG-16: 119 amino acid protein (SEQ ID NO:9) encoded by the genome of Eubacterium eligens (protein, listed as Eubacterium eligens)
chain: MTGCSGSKEPDNKTSVDYTVVENADLPEELKKLIESKKDKVMRLTYTTKDYTYVVAGYGTRETSGYSIKVNDVYTGDNALYIDLNLIGPAAGEAVNEVETYPVIVLKMERREESVVFKM
On to B4, for which the “TEER … (percent of untreated samples)” value in assay [1] (setting [4]) is on record as 60.7%; in assay [1] (setting [5]), “about 60.0%”. Also, the “Colon length / colon shortening elicited by DSS treatment” value with DSS treated mice [2] is listed as “slightly improved colon shortening”. Moreover, the “Colon weight to length ratio” value in the assay with DSS treated mice [3] (setting [6]) amounted to 4.1.
